The labels stand for the following.
B1: Yah1-GST fusion protein (natural protein)
chain: IAAHLLRTSPSLLTRTTTTTRFLPFSTSSFLNHGHLKKPKPGEELKITFILKDGSQKTYEVCEGETILDIAQGHNLDMEGACGGSCACSTCHVIVDPDYYDALPEPEDDENDMLDLAYGLTETSRLGCQIKMSKDIDGIRVALPQMTRNVNNNDFS

In assay [1] the target is T1, NIA–Isu1 complex with C. thermophilum Isu1 (S. cerevisiae | E. coli (endogenous in …, UniProt P25374 37-497; Q6Q560 1-94; P0A6A8 1-78). In words: BLI; kd1 of 2:1 fit. (BLI is a label-free optical method that tracks binding on a fibre tip over time.)
For assay [2], the target named is T1, NIA–Isu1 complex with C. thermophilum …. In words: BLI; kd1 of 2:1 fit. The source holds these as a separate data set.
Assay [3] has the same target. As to the kind of experiment: BLI; kd2 of 2:1 fit, second site.
The target is the same in assay [4]. In words: BLI; kd2 of 2:1 fit, second site. This is another data set of the same source.
Assay [5] has the same target. As to the kind of experiment: BLI; KD1 of 2:1 heterogeneous ligand fit (46%).
For assay [6] the target is unchanged. As to the kind of experiment: BLI; KD1 of 2:1 heterogeneous ligand fit (43%).
For assay [7] the target is unchanged. As to the kind of experiment: BLI; KD2 of 2:1 heterogeneous ligand fit (54%), second site.
Assay [8] shares this target. In words: BLI; KD2 of 2:1 heterogeneous ligand fit (57%), second site.
Assay [9] has as its target T2, NIA complex (Nfs1–Isd11–ACPEc) (S. cerevisiae | E. coli (endogenous in …, UniProt P25374 37-497; Q6Q560 1-94; P0A6A8 1-78).
T2 chain 1: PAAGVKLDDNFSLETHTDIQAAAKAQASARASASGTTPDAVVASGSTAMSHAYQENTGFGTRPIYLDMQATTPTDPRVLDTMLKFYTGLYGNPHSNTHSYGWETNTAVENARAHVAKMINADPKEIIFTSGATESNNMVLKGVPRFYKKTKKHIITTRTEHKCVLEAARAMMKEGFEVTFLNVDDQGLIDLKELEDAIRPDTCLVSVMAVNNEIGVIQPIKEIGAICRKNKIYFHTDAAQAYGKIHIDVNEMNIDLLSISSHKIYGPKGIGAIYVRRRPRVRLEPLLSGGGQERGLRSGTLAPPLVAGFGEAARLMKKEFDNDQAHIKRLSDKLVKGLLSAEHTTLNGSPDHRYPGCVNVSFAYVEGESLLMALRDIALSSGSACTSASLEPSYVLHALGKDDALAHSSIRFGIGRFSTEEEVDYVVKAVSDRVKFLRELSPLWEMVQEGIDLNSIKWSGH
T2 chain 2: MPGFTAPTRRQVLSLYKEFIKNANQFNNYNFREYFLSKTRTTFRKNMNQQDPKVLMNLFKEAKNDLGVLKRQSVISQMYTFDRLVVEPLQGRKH
T2 chain 3: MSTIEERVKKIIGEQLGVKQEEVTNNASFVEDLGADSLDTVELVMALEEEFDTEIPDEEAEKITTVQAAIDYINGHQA
In words: BLI; kd1 of 2:1 fit.

The target of assay [10] is T2, NIA complex (Nfs1–Isd11–ACPEc). In words: BLI; kd2 of 2:1 fit, second site.
Assay [11] shares this target. As to the kind of experiment: BLI; KD1 of 2:1 heterogeneous ligand fit (61%).
For assay [12] the target is unchanged. As to the kind of experiment: BLI; KD2 of 2:1 heterogeneous ligand fit (39%), second site.
The target of assay [13] is B1. As to the kind of experiment: BLI; kd1 of 2:1 fit.
Assay [14] concerns the target B1. In words: BLI; kd2 of 2:1 fit, second site.
Assay [15] addresses B1. As to the kind of experiment: BLI; anaerobic, reduced Yah1; kd1 of 2:1 fit.
Assay [16] has as its target B1. As to the kind of experiment: BLI; KD1 of 2:1 heterogeneous ligand fit (38%).
Assay [17] addresses B1. In words: BLI; anaerobic, reduced Yah1; KD1 of 2:1 fit (37%).
In assay [18] the target is B1. As to the kind of experiment: BLI; anaerobic, reduced Yah1 (Fig. 6C); kd1 of 2:1 fit.
Assay [19] deals with B1. In words: BLI; anaerobic, reduced Yah1; kd2 of 2:1 fit, second site.
The target of assay [20] is B1. As to the kind of experiment: BLI; KD2 of 2:1 heterogeneous ligand fit (62%), second site.
Assay [21] concerns the target B1. In words: BLI; anaerobic, reduced Yah1 (Fig. 6C); KD1 of 2:1 fit (45%).
Assay [22] addresses B1. As to the kind of experiment: BLI; anaerobic, reduced Yah1; KD2 of 2:1 fit (63%), second site.
Assay [23] deals with B1. In words: BLI; anaerobic, reduced Yah1 (Fig. 6C); kd2 of 2:1 fit, second site.
Assay [24] deals with B1. In words: BLI; anaerobic, reduced Yah1 (Fig. 6C); KD2 of 2:1 fit (55%), second site.

What is called koff is the first-order rate constant of dissociation. For orientation: Kd means a measure of binding affinity in units of concentration. A lower Kd goes with a tighter complex.

With B1, the off-rate constant (koff) in assay [1] is 0.00167 s⁻¹; in [2] it was 0.00118 s⁻¹; in assay [3], 0.109 s⁻¹; in assay [4], 0.0403 s⁻¹. Besides, the Kd in assay [5] came out at 228 nM; in assay [6], 184 nM; in [7], 212 nM; in assay [8], 800 nM.

B2: Yah1 (untagged, holo) (natural protein)
chain: IAAHLLRTSPSLLTRTTTTTRFLPFSTSSFLNHGHLKKPKPGEELKITFILKDGSQKTYEVCEGETILDIAQGHNLDMEGACGGSCACSTCHVIVDPDYYDALPEPEDDENDMLDLAYGLTETSRLGCQIKMSKDIDGIRVALPQMTRNVNNNDFS
As to B2, the off-rate (koff) in assay [9] came out at 2.08e-07 s⁻¹; in assay [10], 0.00156 s⁻¹. In addition, the Kd is 0.307 nM in [11] and 544 nM in assay [12].

B3: NIA–Isu1 complex with S. cerevisiae Isu1 (complex)
chain 1: PAAGVKLDDNFSLETHTDIQAAAKAQASARASASGTTPDAVVASGSTAMSHAYQENTGFGTRPIYLDMQATTPTDPRVLDTMLKFYTGLYGNPHSNTHSYGWETNTAVENARAHVAKMINADPKEIIFTSGATESNNMVLKGVPRFYKKTKKHIITTRTEHKCVLEAARAMMKEGFEVTFLNVDDQGLIDLKELEDAIRPDTCLVSVMAVNNEIGVIQPIKEIGAICRKNKIYFHTDAAQAYGKIHIDVNEMNIDLLSISSHKIYGPKGIGAIYVRRRPRVRLEPLLSGGGQERGLRSGTLAPPLVAGFGEAARLMKKEFDNDQAHIKRLSDKLVKGLLSAEHTTLNGSPDHRYPGCVNVSFAYVEGESLLMALRDIALSSGSACTSASLEPSYVLHALGKDDALAHSSIRFGIGRFSTEEEVDYVVKAVSDRVKFLRELSPLWEMVQEGIDLNSIKWSGH
chain 2: MPGFTAPTRRQVLSLYKEFIKNANQFNNYNFREYFLSKTRTTFRKNMNQQDPKVLMNLFKEAKNDLGVLKRQSVISQMYTFDRLVVEPLQGRKH
chain 3: MSTIEERVKKIIGEQLGVKQEEVTNNASFVEDLGADSLDTVELVMALEEEFDTEIPDEEAEKITTVQAAIDYINGHQA
chain 4: SSITKRLYHPKVIEHYTHPRNVGSLDKKLPNVGTGLVGAPACGDVMRLQIKVNDSTGVIEDVKFKTFGCGSAIASSSYMTELVQGMTLDDAAKIKNTEIAKELSLPPVKLHCSMLAEDAIKAAIKDYKSKRNTPTMLS
As for B3, the koff came out at 0.000977 s⁻¹ in the assay with Yah1-GST fusion protein [13]; 0.0375 s⁻¹ in the assay with Yah1-GST fusion protein [14]; 4.05e-07 s⁻¹ with Yah1-GST fusion protein [15]; 4.99e-07 s⁻¹ with Yah1-GST fusion protein [18]; 0.00421 s⁻¹ with Yah1-GST fusion protein [19]; 0.00777 s⁻¹ with Yah1-GST fusion protein [23]. The dissociation constant Kd with Yah1-GST fusion protein [16] amounted to 325 nM; with Yah1-GST fusion protein [17] it was 0.0165 nM; in the assay with Yah1-GST fusion protein [20] it was 660 nM; with Yah1-GST fusion protein [21] it was 0.02 nM; in the assay with Yah1-GST fusion protein [22] it was 15.3 nM; in the assay with Yah1-GST fusion protein [24], 19.2 nM.

The values above are taken from PMC8888459 (2022).
